Experimental data from patent US12385050B1.

How the values were obtained:
[1] = biological target: endotoxin (endotoxin concentrate; δ-endotoxin of Bacillus thuringiensis)
[2] = biological target: endotoxin (endotoxin concentrate; δ-endotoxin of Bacillus thuringiensis); remark: listed apart in the source
[3] = biological target: endotoxin (endotoxin concentrate; δ-endotoxin of Bacillus thuringiensis); remark: listed apart in the source

Substance | RPW larval mortality rate, endotoxin solution with the LEA protein, 42 °C, 10 days [1] [%] | RPW egg hatching rate, endotoxin solution with the LEA protein at 1:40, heat stress 42 °C, day 5 [2] [%] | RPW adult mortality rate, endotoxin solution with the LEA protein, 42 °C, 10 days [3] [%]
recombinant Phoenix dactylifera LEA2 protein PdLEA2.2 | 84.7 | 11 | 75
recombinant Phoenix dactylifera LEA2 protein PdLEA2.3 | 83.3 | 15 | 73.6
recombinant Phoenix dactylifera dehydrin PdDHN | 85.6 | 11.3 | 75
recombinant Prosopis cineraria dehydrin PcDHN | 88 | 13.6 | 76.3
recombinant Citrullus colocynthis dehydrin CcDHN | 89.7 | 15 | 77.6
recombinant Phoenix dactylifera LEA2 protein PdLEA2.4 | 83.6 | 11.3 | 73.3
